From paper PMC9019814

Tests used:
alcohol dehydrogenase = alcohol dehydrogenase (UniProt P00330)
citrate synthase = citrate synthase (UniProt P00889)
[1] = biological target: βB2-crystallin (calf (endogenous in calf lenses)) (UniProt P02522)
Sequence of βB2-crystallin (calf (endogenous in calf lenses)) (P02522 whole entry): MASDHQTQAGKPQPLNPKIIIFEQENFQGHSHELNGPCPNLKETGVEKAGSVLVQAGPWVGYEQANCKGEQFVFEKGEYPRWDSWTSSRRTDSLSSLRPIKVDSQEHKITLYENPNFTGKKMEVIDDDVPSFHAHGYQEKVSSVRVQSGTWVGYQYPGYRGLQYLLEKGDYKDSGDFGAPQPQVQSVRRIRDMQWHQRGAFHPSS

Sequence of human wild-type αA-crystallin (P02489 whole entry): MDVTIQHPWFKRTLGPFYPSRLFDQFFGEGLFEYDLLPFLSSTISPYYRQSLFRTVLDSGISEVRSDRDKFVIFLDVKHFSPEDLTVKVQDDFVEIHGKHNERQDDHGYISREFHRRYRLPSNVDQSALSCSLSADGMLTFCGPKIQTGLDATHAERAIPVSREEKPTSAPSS
Sequence of citrate synthase (P00889 28-464): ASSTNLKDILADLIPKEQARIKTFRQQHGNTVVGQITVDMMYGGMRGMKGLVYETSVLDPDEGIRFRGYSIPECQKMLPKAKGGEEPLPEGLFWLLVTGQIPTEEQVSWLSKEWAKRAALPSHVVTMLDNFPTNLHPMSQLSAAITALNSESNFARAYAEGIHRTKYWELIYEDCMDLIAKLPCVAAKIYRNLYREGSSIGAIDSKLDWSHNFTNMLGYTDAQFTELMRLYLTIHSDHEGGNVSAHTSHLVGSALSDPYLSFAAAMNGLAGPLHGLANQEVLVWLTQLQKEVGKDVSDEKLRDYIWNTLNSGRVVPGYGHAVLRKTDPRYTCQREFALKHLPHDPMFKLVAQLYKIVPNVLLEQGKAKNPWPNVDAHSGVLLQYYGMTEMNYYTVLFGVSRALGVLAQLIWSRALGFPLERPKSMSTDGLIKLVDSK
Sequence of alcohol dehydrogenase (P00330 whole entry): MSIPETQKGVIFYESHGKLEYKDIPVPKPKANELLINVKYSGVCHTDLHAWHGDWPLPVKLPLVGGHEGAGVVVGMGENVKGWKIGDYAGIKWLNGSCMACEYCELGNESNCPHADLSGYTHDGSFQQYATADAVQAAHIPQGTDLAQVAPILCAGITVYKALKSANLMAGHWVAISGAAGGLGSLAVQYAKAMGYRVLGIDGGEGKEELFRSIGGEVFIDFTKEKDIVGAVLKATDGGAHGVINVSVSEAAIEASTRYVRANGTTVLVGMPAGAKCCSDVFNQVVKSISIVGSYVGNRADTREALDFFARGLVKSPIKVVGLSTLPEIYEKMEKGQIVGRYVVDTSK

EC50 of chaperone protein for suppression of EDTA-induced aggregation of ADH (250 µg in 1 ml) at 37°C, scattering at 360 nm at 60 min (alcohol dehydrogenase): 45 µg
amount of chaperone protein for fifty percent protection from thermal aggregation of CS (75 µg in 1 ml) at 43°C, scattering at 360 nm at 60 min (citrate synthase): 22 µg
amount of chaperone protein that suppresses the aggregation of βB2-crystallin (250 µg in 1 ml) at 37°C by 50%, scattering at 360 nm at 60 min [1]: 30 µg
Substance: human wild-type αA-crystallin (from UniProt P02489 1-173) (natural protein)
